Assay results as given in publication PMC9581112.

Target: Pyruvate kinase M2 (PKM2) (human (endogenous in MDA-MB-231 and MCF-7)) (UniProt P14618)
Experiment: native gel or EMSA

Chain of Pyruvate kinase M2 (PKM2), P14618 1-531 (enzyme; other documents disagree on this pair) (P14618 whole entry): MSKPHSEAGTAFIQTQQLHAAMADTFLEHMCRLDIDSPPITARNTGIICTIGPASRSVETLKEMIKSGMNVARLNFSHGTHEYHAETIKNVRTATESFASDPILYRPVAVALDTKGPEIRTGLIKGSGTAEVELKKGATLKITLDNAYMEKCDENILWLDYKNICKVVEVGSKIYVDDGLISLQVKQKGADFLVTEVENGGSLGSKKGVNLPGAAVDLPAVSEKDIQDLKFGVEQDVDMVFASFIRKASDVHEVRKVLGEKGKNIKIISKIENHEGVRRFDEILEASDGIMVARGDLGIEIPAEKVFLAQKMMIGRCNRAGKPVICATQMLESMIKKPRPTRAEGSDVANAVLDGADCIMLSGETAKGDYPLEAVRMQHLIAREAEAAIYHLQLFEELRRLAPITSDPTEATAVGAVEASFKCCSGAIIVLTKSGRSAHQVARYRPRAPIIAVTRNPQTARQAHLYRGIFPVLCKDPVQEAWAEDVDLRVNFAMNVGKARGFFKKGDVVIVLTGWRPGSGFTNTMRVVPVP

Substance: Pyruvate kinase M2 (PKM2), P14618 1-531 (enzyme; other documents disagree on this pair)
- stoichiometry N: 2
